From patent US20240209070A1, “COTH3 BINDING AGENTS AND USES THEREOF” (priority 2021, published 2024)

What was measured:
CotH3 antigen = CotH3 antigen (Rhizopus delemar, UniProt I1CFE1); settings: Protein G sensor, CotH3 6.25-400 nM, 25° C.
Method: The purified preparations were then used to assess the affinity of each clone for the CotH3 antigen by biolayer interferometry using Gator system (ProbeLife). Under the assumption that the CotH3 antigen provided by Vitalex behaves as a normal soluble monomeric protein, a Protein G coated sensor probe (ProbeLife, catalog #160006) was loaded with the bivalent antibody test clone at a concentration of 5 μg/ml in ProbeLife's kinetic buffer (PBS pH 7.4, 0.02% BSA, 0.002% Tween-20, 0.005% NaN3). A serial dilution of CotH3 antigen of 400, 200, 100, 50, 25, 12.5, 6.25 nM and buffer only (0 nM) was added to the sensors. All reactions were performed at 25° C. The values are chosen when three or more concentrations yield the same kinetic values. The original murine mAb was provided by Vitalex as the reference.

R. delemar 99-880 = assay: Neutropenic mouse model of mucormycosis, R. delemar 99-880 infection; format: in vivo, Rhizopus delemar; settings: single dose of 30 μg 24 h after infection, lungs harvested day 4
Method: Mouse models: Neutropenic mice model used male ICR mice (20 to 23 g) obtained from Envigo (NJ). Mice were injected with cyclophosphamide (200 mg/kg, given intraperitoneally) and cortisone acetate (500 mg/kg, given subcutaneously) on days −2, +3, and +8 relative to infection^(1).
Antibody treatment with a single dose of 30 μg humanized antibody, or isotype human IgG started 24 or 48 hours after infection and was administered by intraperitoneal injection. Time to moribundity (equated with survival) served as the primary endpoint. As a secondary endpoint and in some experiments, fungal burden in the lungs and brains (primary and secondary target organs) was determined 96 hours after infection by quantitative PCR assay, as we previously described^(3). Values were expressed as log10 spore equivalent per gram of tissue. Histopathological examination was carried out on sections of the harvested organs after fixing in 10% zinc formalin. The fixed organs were embedded in paraffin, and […] sections were stained with hematoxylin and eosin.

Mucorales CotH3 = Mucorales CotH3 (Rhizopus delemar, UniProt I1CFE1)
Mucorales CotH2 = biological target: T1, Mucorales CotH2 (Rhizopus delemar, UniProt I1C4E4)
T1 sequence (I1C4E4 whole entry, looked up): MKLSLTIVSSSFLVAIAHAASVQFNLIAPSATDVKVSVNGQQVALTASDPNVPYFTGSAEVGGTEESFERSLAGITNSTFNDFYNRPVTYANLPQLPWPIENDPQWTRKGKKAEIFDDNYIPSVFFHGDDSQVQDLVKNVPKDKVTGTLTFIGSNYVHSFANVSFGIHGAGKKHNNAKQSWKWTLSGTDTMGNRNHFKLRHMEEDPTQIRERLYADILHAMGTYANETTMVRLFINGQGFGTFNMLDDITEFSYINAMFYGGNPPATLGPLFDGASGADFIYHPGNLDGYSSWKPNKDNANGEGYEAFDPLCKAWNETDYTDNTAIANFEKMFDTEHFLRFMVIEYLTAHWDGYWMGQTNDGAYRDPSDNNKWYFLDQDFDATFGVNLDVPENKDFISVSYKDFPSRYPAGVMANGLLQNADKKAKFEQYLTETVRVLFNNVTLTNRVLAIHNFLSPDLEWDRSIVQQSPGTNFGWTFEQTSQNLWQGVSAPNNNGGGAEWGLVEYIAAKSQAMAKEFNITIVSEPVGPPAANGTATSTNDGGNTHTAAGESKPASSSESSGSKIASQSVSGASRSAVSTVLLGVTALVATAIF

[1] = intravenous, single dose 10 μg, 30 μg or 100 μg, 1-168 hours
Method: Pharmacokinetics study: Neutropenic mice were infected intratracheally with 25 μl of PBS containing 2.5×10^5 spores of Rhizopus delemear. […] After infection, mice were treated daily with 5 mg in 0.2 ml of irrigation water with ceftazidime subcutaneously to prevent bacterial superinfection. […] Mouse serum samples were collected at the time points: 1 hour, 2 hours, 4 hours, 8 hours, 24 hours, 72 hours, 120 hours, and 168 hours after the antibody injection. The antibody concentration in the mouse serum samples was detected by ELISA, with Flag-CotH3 as the coating protein, and anti-human-IgG-HRP as the secondary antibody.

Chain of CotH3 antigen (I1CFE1 18-601): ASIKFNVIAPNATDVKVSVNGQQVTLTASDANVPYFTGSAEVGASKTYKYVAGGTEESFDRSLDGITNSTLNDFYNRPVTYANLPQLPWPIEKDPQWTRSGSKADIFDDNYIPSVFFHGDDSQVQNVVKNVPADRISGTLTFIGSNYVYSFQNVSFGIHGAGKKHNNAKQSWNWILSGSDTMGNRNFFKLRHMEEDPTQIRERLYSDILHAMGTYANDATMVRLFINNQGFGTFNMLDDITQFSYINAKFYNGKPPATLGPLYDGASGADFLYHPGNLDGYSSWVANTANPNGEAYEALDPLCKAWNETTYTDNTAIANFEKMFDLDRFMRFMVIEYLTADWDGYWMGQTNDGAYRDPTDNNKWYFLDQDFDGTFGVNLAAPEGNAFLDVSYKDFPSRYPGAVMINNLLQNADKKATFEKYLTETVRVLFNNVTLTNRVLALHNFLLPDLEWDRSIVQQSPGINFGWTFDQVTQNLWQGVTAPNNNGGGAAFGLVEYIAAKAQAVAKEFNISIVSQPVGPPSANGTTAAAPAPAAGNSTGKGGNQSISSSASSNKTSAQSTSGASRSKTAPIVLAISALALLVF
Chain of Mucorales CotH3 (I1CFE1 18-601): as above

B1: mAb: mouse monoclonal IgG1 kappa anti-CotH3 antibody, clone C2, raised against peptide SEQ ID NO:34 (antibody, V domains shown)
VH: DLQLQESGPSLVKPSQTLSLTCSVTGDSITSGYWNWIRKFPGNKLEHMGYIKYSGRTFYNPSLKSRVSITRDTSKNQYYLQLNSVTSEDTATYYCASRGYWGQGTTLTVSS
VL: DVVMTQTPLSLSVTIGQPASISCKSSQSLLYSNGKTYLNWLQQRPGQAPKLLMFQVSKPGIPDRFSGSGSETDFTLKISRVEAEDLGVYYCLQGTYFPHTFGAGTKVEIK
In the case of B1, the “Koff (S^−1)” value (CotH3 antigen) is reported as 1.41E−3 S^−1, the “Kon” value (CotH3 antigen) is reported as 23900 M⁻¹ s⁻¹ and the Rmax (CotH3 antigen) is reported as 0.69. The lung histology (R. delemar 99-880) was “no fungal elements and normal lung architecture”, the “specific binding to CotH3” value (Mucorales CotH3) was “bound specifically” and the “specific binding to CotH2” value (Mucorales CotH2) was “bound specifically”. For the same molecule, the “pharmacokinetics (serum antibody concentration)” value [1] was “Dose dependent pharmacokinetics”.
